# Measurements reported in patent publication US20210130436A1 (published 2021).
# What was measured:
# human CD28 = human CD28 (human, UniProt P10747 19-220); test: flow cytometry, Jurkat cells (CD28)
# human CTLA-4 [1] = molecular target: T1, human CTLA-4 (human, UniProt P16410 36-223); test: flow cytometry, CHO cells stably expressing CTLA4
# T1 construct: also called huCTLA4
# human PD-L1 [2] = molecular target: T2, human PD-L1 (human, UniProt Q9NZQ7 19-290); test: flow cytometry, CHO cells stably expressing PD-L1
# T2 construct: also called huPD-L1; CD274
# [3] = molecular target: T3, human PD-L1 (full-length, expressed on CHO cells) (human, UniProt Q9NZQ7 19-290); test: flow cytometry, CHO cells expressing huPD-L1, PE anti-human Fc
# T3 construct: also called huPD-L1; CD274
# T3 sequence (Q9NZQ7 19-290): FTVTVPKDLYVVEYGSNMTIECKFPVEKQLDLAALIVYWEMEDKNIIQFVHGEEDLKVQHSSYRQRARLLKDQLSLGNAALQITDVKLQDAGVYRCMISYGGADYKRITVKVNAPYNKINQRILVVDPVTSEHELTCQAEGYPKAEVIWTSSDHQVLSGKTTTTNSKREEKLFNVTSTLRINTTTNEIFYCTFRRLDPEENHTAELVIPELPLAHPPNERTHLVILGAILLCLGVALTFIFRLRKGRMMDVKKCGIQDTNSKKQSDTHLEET
# [4] = molecular target: T4, CD28 (endogenously expressed on Jurkat/IL2 reporter cells) (human, UniProt P10747 19-220); test: flow cytometry MFI at 33.3 nM relative to WT CD80 ECD-Fc (R&D), Jurkat cells
# T4 construct: Endogenous CD28 of Jurkat cells; also called human CD28
# [5] = molecular target: T4, CD28 (endogenously expressed on …); test: flow cytometry, Jurkat/IL2 reporter cells (endogenous CD28), PE anti-human Fc
# [6] = molecular target: T3, human PD-L1 (full-length, expressed on …); test: flow cytometry MFI at 33.3 nM relative to WT CD80 ECD-Fc (R&D), CHO/huPD-L1 cells
# [7] = molecular target: T3, human PD-L1 (full-length, expressed on …); test: flow cytometry, MFI on CHO/huPD-L1 cells over MFI on Jurkat (CD28) cells, 33.3 nM
# [8] = molecular target: T5, human PD-L1 expressed on CHO cells (human, UniProt Q9NZQ7 19-290); test: flow cytometry, CHO cells stably expressing PD-L1, Fc fusion at 33.3 nM
# T5 construct: whole, on cells; Target on CHO cells stably expressing PD-L1; also called huPD-L1
# T5 sequence (Q9NZQ7 19-290): as above
# [9] = molecular target: T6, CD28 on Jurkat/IL2 reporter cells (human, UniProt P10747 19-220); test: flow cytometry, Jurkat cells (CD28)
# T6 construct: whole, on cells; Endogenous CD28 of Jurkat cells; also called Jurkats (CD28)
# human CTLA4 on CHO cells = molecular target: T7, human CTLA4 on CHO cells (human, UniProt P16410 36-223); test: flow cytometry, CHO cells stably expressing CTLA4
# T7 construct: whole, on cells; CHO cells stably expressing CTLA4; also called huCTLA4
# T7 sequence (P16410 36-223): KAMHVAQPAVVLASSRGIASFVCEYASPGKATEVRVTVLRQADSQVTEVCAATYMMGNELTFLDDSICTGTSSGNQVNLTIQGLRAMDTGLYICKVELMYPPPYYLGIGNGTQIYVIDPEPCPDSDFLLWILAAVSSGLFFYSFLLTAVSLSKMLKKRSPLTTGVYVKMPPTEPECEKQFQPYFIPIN
# human PD-L1 [10] = molecular target: T8, human PD-L1 (human, UniProt Q9NZQ7 19-290); test: flow cytometry, CHO cells stably expressing huPD-L1, 33.3 nM Fc fusion, PE anti-human Fc
# T8 construct: whole, on cells; CHO cells stably expressing huPD-L1; also called huPD-L1
# human CTLA-4 [11] = molecular target: T9, human CTLA-4 (human, UniProt P16410 36-223); test: flow cytometry, CHO cells stably expressing huCTLA-4, 33.3 nM Fc fusion, PE anti-human Fc
# T9 construct: whole, on cells; CHO cells stably expressing huCTLA4; also called huCTLA4
# [12] = molecular target: T10, human CTLA4 (full-length, expressed on CHO cells) (human, UniProt P16410 36-223); test: flow cytometry, CHO cells expressing huCTLA4, PE anti-human Fc
# T10 construct: also called huCTLA4
# T10 sequence (P16410 36-223): as above
# human PD-L1 on CHO cells = molecular target: T11, human PD-L1 on CHO cells (human, UniProt Q9NZQ7 19-290); test: flow cytometry, CHO cells stably expressing PD-L1
# T11 construct: whole, on cells; CHO cells stably expressing PD-L1; also called huPD-L1
# T11 sequence (Q9NZQ7 19-290): as the sequence (Q9NZQ7 19-290) above
binder,measurement,setting,value
"CD80 IgV-Fc S21P/E35D/K37E/D46E/M47I/V68M (Fc fusion, not shown: a dimerising Fc or GST) VIHVTKEVKEVATLSCGHNVPVEELAQTRIYWQKDKEMVLTMMSGEINIWPEYKNRTIFDITNNLSIMILALRPSDEGTYECVVLKYEKDAFKREHLAEVTLSVKAD",MFI at 33.3 nM,human CD28,540 MFI
same,MFI at 33.3 nM,human CTLA-4 [1],20600 MFI
"CD80 IgV-Fc V22D/E24D/E35D/M47L/V68M/L85M/D90G (Fc fusion, not shown: a dimerising Fc or GST) VIHVTKEVKEVATLSCGHNVSDEDLAQTRIYWQKDKKMVLTMMSGDLNIWPEYKNRTIFDITNNLSIMILALRPSDEGTYECVVMKYEKGAFKREHLAEVTLSVKAD",MFI at 33.3 nM,human PD-L1 [2],19000 MFI
"variant CD80 IgV-Fc Q33L/E35D/T41S/M47V (Fc fusion, not shown: a dimerising Fc or GST) VIHVTKEVKEVATLSCGHNVSVEELAQTRIYWLKDKKMVLSMMSGDVNIWPEYKNRTIFDITNNLSIVILALRPSDEGTYECVVLKYEKDAFKREHLAEVTLSVKAD",MFI at 33.3 nM,[3],43800 MFI
same,Fold change to WT,[4],0.04 fold
same,MFI at 33.3 nM,[5],287 MFI
same,Fold change to WT,[6],5.52 fold
same,Ratio of PDL1:CD28,[7],153 ratio
"CD80 IgV-Fc T13R/E35D/M47L/V68M (Fc fusion, not shown: a dimerising Fc or GST) VIHVTKEVKEVARLSCGHNVSVEELAQTRIYWQKDKKMVLTMMSGDLNIWPEYKNRTIFDITNNLSIMILALRPSDEGTYECVVLKYEKDAFKREHLAEVTLSVKAD",MFI at 33.3 nM,human CD28,15.6 MFI
same,MFI at 33.3 nM,human PD-L1 [2],20000 MFI
"CD80 M47V/N48K/V68M/K89N IgV-Fc (Fc fusion, not shown: small tags and cut ends; a dimerising Fc or GST) VIHVTKEVKEVATLSCGHNVSVEELAQTRIYWQKEKKMVLTMMSGDVKIWPEYKNRTIFDITNNLSIMILALRPSDEGTYECVVLKYENDAFKREHLAEVTLSVKAD",MFI at 33.3 nM,[8],23700 MFI
"CD80 IgV-Fc T13R/Q33R/E35D/M38I/M47L/V68M/L85M/R94Q (Fc fusion, not shown: a dimerising Fc or GST) VIHVTKEVKEVARLSCGHNVSVEELAQTRIYWRKDKKIVLTMMSGDLNIWPEYKNRTIFDITNNLSIMILALRPSDEGTYECVVMKYEKDAFKQEHLAEVTLSVKAD",MFI at 33.3 nM,human CD28,15.2 MFI
same,MFI at 33.3 nM,human CTLA-4 [1],19100 MFI
same,MFI at 33.3 nM,human PD-L1 [2],20400 MFI
"variant CD80 IgV-Fc E35D/M47V/T62S/L85Q (Fc fusion, not shown: a dimerising Fc or GST) VIHVTKEVKEVATLSCGHNVSVEELAQTRIYWQKDKKMVLTMMSGDVNIWPEYKNRTIFDISNNLSIVILALRPSDEGTYECVVQKYEKDAFKREHLAEVTLSVKAD",MFI at 33.3 nM,[9],99.4 MFI
same,MFI at 33.3 nM,human CTLA4 on CHO cells,31200 MFI
"variant CD80 IgV-Fc (inert) H18V/A26N/E35D/M47V/V68M/A71G (Fc fusion, not shown: inert human IgG1 Fc) VIHVTKEVKEVATLSCGVNVSVEELNQTRIYWQKDKKMVLTMMSGDVNIWPEYKNRTIFDITNNLSIMILGLRPSDEGTYECVVLKYEKDAFKREHLAEVTLSVKAD",MFI at 33.3 nM,human PD-L1 [10],68200 MFI
same,MFI at 33.3 nM,human CTLA-4 [11],22400 MFI
"variant CD80 IgV-Fc Q33K/E35D/D46V/L85Q (Fc fusion, not shown: a dimerising Fc or GST) VIHVTKEVKEVATLSCGHNVSVEELAQTRIYWKKDKKMVLTMMSGVMNIWPEYKNRTIFDITNNLSIVILALRPSDEGTYECVVQKYEKDAFKREHLAEVTLSVKAD",MFI at 33.3 nM,[3],26700 MFI
same,Fold change to WT,[4],0.03 fold
same,MFI at 33.3 nM,[5],257 MFI
same,Fold change to WT,[6],3.36 fold
same,Ratio of PDL1:CD28,[7],104 ratio
"variant CD80 IgV-Fc Q33R/E35D/D46E/M47I (Fc fusion, not shown: a dimerising Fc or GST) VIHVTKEVKEVATLSCGHNVSVEELAQTRIYWRKDKKMVLTMMSGEINIWPEYKNRTIFDITNNLSIVILALRPSDEGTYECVVLKYEKDAFKREHLAEVTLSVKAD",MFI at 33.3 nM,[12],3560 MFI
same,MFI at 33.3 nM,[5],303 MFI
"CD80 IgV-Fc S21P/E35D/K37E/D46E/M47I/V68M/R94L (Fc fusion, not shown: a dimerising Fc or GST) VIHVTKEVKEVATLSCGHNVPVEELAQTRIYWQKDKEMVLTMMSGEINIWPEYKNRTIFDITNNLSIMILALRPSDEGTYECVVLKYEKDAFKLEHLAEVTLSVKAD",MFI at 33.3 nM,human CD28,284 MFI
same,MFI at 33.3 nM,human CTLA-4 [1],20100 MFI
"variant CD80 IgV-Fc E35D/M47V/I61V/L85M (Fc fusion, not shown: a dimerising Fc or GST) VIHVTKEVKEVATLSCGHNVSVEELAQTRIYWQKDKKMVLTMMSGDVNIWPEYKNRTIFDVTNNLSIVILALRPSDEGTYECVVMKYEKDAFKREHLAEVTLSVKAD",MFI at 33.3 nM,[9],274 MFI
same,MFI at 33.3 nM,human CTLA4 on CHO cells,28800 MFI
same,MFI at 33.3 nM,human PD-L1 on CHO cells,3050 MFI
